Laboratory results as given in US20220040319A1 (Regeneron, published 2022).

B1: H4H13318P2 (antibody, human IgG4, V domains shown)
VH: QVQLVESGGGVVQPGRSLRLSCVASGFSFSNFGMHWVRQAPGKGLEWVAIIWYDGSNKYYSDSVKGRFTISRDNSKNTLYLQMNSLRVDDTAVYYCARFDRWKFDAFDIWGQGTMVTVSS
VL: not shown
B2: H4H13291P2 (antibody, human IgG4, V domains shown)
VH: QVQLVESGGGVVQPGGSLRLSCAASGFTFSGYGMHWVRQAPGKGLEWMAVIWYDGSNDYYPDSVKGRFTISRDNSKNTLYLQMNSLRVEDTAVYYCARDAWDLLRSFDYWGQGTLVTVSS
VL: not shown
B3: H4H13300P2 (antibody, human IgG4, V domains shown)
VH: QVQLVESGGGVVQPGRSLRLSCAVSGFTFSSYGMHWVRQAPGKGLEWVANIWYDGTNDYYPYSVKGRFTISRDNSQNTLYLQMNSLRAEDTAVYYCAREDFINYRSFDYWGQGTLVTVSS
VL: not shown
B4: H4H13331P2 (antibody, human IgG4, V domains shown)
VH: QVQLQESGPGLVKSSETLSLTCTVSGGSIRNFYWSWLRQPPGKGLEWIGHINYNGGTDYNPSLKSRVTISVDTSKNQFSLNLNSVTAADTAVYYCARQRFYGMDVWGPGTTVTVSS
VL: not shown
B5: H4H13312P2 (antibody, human IgG4, V domains shown)
VH: EVQLVESGGGLVQPGGSLRLSCAASGFIVTTNYMTWLRQAPGKGLEWVSLIYSSGHTYYADSVKGRFTISRHNSKNTLYLQMDSLRAEDTAVYYCASAFAADVFDIWGQGTMVTVSS
VL: not shown
B6: H4H14634D (bispecific antibody, human IgG4, V domains shown)
VH 1: QVQLQESGPGLVKPSETLSLTCTVSGDSISSYYWTWIRQPPGKGLEWIGYIFYRGGTTYNPSLKSRVTISVDTSKNQFSLKLRSVTAADTAVYYCARGDDLLVVTSVYWYIDLWGRGTLVTVSS
VH 2: EVQLVESGGGLVQPGGSLRLSCAASGFIVTTNYMTWLRQAPGKGLEWVSLIYSSGHTYYADSVKGRFTISRHNSKNTLYLQMDSLRAEDTAVYYCASAFAADVFDIWGQGTMVTVSS
VL: not shown
notes: MET x MET bispecific, expressed as human IgG4; also called bispecific antibody No. 10
B7: H4H14637D (bispecific antibody, human IgG4, V domains shown)
VH 1: QVQLVESGGGVVQPGTSLRLSCVASGFTFRNFGMHWVRQAPGKGLEWVANIWFDGSNENYVESIQGRFTISRDNSKNTLNLQMNSLRAEDSAVYYCVREGILGTTNPYDAFDVWGQGTMVTVSS
VH 2: EVQLVESGGGLVQPGGSLRLSCAASGFIVTTNYMTWLRQAPGKGLEWVSLIYSSGHTYYADSVKGRFTISRHNSKNTLYLQMDSLRAEDTAVYYCASAFAADVFDIWGQGTMVTVSS
VL: not shown
notes: MET x MET bispecific, expressed as human IgG4; also called bispecific antibody No. 90
B8: H4H14635D (bispecific antibody, human IgG4, V domains shown)
VH 1: QVQLVESGGGVVQPGRSLRVSCVVSGFTFSSFGMHWVRQAPDKGLEWVAVIWYDGSNDYYSDSVKGRFTISRDNSKNTLFLQMNRLRAEDTAVYYCARANNWNRFDAFDLWGQGTMVTVSS
VH 2: EVQLVESGGGLVQPGGSLRLSCAASGFIVTTNYMTWLRQAPGKGLEWVSLIYSSGHTYYADSVKGRFTISRHNSKNTLYLQMDSLRAEDTAVYYCASAFAADVFDIWGQGTMVTVSS
VL: not shown
notes: MET x MET bispecific, expressed as human IgG4; also called bispecific antibody No. 42
B9: H4H14636D (bispecific antibody, human IgG4, V domains shown)
VH 1: EVQLVESGGGLVQPGGSLRLSCAASGFIFSNYEMNWVRQAPGKGLEWISYITSSGNMKYYADSVKGRFTISRDNDKNSLYLQMSSLRVEDTAVYYCVRGGRFLEWLTYYVMVVWGQGTTVTVSS
VH 2: EVQLVESGGGLVQPGGSLRLSCAASGFIVTTNYMTWLRQAPGKGLEWVSLIYSSGHTYYADSVKGRFTISRHNSKNTLYLQMDSLRAEDTAVYYCASAFAADVFDIWGQGTMVTVSS
VL: not shown
notes: MET x MET bispecific, expressed as human IgG4; also called bispecific antibody No. 74

Experiments:
human MET on cells [1] = molecular target: T1, human MET on cells (human, UniProt P08581 25-1390); experiment: cell-based or functional assay
human MET on cells [2] = molecular target: T1, human MET on cells; experiment: cell-based or functional assay; remark: listed apart in the source
human MET on cells [3] = molecular target: T1, human MET on cells; experiment: cell-based or functional assay; remark: listed apart in the source
[4] = molecular target: T2, hMet.mmh (human MET extracellular domain with C-terminal myc-myc-hexahistidine tag) (human, UniProt P08581 309-914; P08581 27-307); experiment: SPR 37C, antibody captured
T2 construct: soluble monomeric MET; also called monomeric human MET
Procedure: Kinetic association (kₐ) and dissociation (kd) rate constants were determined as described in Example 3.
Throughout, for % Inhibition, HEK293/SRE-Luc Blocking Activity (HGF, 1 h mAb pre-bind): test concentration or dose not given here.

T2 sequence (P08581 other isoform, or with tags, fused parts or gaps limits assumed, chain 1 of 2): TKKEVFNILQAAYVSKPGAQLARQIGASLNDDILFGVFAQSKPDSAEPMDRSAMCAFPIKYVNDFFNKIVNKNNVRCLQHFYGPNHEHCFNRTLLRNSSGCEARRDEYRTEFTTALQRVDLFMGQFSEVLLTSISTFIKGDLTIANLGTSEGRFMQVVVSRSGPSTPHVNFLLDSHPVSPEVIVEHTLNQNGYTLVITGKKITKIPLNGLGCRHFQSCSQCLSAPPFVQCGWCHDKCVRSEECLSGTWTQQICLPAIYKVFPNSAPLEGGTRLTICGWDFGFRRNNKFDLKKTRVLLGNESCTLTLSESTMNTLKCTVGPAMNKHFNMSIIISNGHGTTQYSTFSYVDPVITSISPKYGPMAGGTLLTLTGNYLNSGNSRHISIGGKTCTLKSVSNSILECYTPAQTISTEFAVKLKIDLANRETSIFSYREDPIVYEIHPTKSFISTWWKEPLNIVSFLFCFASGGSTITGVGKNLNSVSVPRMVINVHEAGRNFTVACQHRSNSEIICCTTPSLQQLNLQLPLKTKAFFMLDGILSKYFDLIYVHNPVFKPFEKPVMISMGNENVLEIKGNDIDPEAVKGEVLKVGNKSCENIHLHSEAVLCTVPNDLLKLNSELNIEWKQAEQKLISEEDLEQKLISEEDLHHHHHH
T2 sequence (P08581 27-307 limits assumed, chain 2 of 2): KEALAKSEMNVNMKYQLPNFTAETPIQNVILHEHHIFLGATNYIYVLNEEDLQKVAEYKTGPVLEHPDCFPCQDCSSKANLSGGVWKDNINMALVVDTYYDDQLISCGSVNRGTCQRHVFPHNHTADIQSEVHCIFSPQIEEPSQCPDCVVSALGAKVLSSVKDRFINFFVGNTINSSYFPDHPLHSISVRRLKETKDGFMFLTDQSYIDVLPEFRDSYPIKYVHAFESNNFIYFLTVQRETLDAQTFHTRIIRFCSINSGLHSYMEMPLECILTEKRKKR
T1 sequence (P08581 25-1390 limits assumed, form in doubt): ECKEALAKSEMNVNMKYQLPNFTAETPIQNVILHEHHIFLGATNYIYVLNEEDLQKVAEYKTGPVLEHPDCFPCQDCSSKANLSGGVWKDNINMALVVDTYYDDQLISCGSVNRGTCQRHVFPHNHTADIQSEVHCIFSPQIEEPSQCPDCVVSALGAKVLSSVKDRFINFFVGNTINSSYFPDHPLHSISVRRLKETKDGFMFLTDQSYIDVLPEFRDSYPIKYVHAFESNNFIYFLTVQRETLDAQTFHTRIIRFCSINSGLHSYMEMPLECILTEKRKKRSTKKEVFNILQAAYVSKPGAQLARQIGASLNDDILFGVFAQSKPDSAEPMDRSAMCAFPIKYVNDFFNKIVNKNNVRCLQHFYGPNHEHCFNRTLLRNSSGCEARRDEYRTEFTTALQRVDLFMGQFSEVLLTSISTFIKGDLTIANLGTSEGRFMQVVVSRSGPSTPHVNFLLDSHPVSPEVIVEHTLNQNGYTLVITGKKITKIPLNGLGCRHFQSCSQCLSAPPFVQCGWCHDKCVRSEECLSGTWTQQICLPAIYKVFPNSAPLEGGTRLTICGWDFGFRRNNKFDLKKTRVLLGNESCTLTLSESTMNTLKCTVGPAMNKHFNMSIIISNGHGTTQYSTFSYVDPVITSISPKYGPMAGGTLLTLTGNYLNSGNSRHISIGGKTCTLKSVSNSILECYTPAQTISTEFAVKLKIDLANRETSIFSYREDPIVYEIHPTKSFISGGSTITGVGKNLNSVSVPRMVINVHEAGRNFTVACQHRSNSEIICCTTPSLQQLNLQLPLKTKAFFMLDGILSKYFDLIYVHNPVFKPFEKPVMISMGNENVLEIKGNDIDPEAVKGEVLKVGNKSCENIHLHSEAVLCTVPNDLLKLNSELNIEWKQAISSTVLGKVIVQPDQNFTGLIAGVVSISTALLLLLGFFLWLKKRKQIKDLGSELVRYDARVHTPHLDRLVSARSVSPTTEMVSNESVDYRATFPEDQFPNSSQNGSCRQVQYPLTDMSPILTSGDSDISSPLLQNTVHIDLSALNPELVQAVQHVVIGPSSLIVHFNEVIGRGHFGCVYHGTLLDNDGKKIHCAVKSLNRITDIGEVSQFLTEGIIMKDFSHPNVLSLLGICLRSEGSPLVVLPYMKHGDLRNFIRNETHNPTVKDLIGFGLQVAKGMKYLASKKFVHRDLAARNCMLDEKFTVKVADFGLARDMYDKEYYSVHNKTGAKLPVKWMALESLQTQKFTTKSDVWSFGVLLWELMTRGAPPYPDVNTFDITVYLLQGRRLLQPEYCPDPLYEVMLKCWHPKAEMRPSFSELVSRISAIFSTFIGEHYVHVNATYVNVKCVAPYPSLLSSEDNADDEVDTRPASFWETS

Binder | % Inhibition, HEK293/SRE-Luc Blocking Activity (HGF, 1 h mAb pre-bind) (human MET on cells [1]) | Fold Response, Ligand (HGF)-Independent HEK293/SRE-Luc Activation (human MET on cells [1]) | IC50, HEK293/SRE-Luc Blocking Activity (HGF, 1 h mAb pre-bind) (human MET on cells [1]) | % Growth Inhibition, SNU5 cells (human MET on cells [2]) | EC50, Ligand (HGF)-Independent HEK293/SRE-Luc Activation (human MET on cells [1]) | T½ [4] | koff [4] | other results
B1 | 77% | 3.1 fold | 100 pM | 18% |  |  |  | IC50, SNU5 growth (human MET on cells [2]): 51 pM
B2 | 61% | 2.7 fold | 130 pM | 24% | 390 pM |  |  | 
B3 | 69% | 2.8 fold | 120 pM | 16% | 480 pM |  |  | 
B4 | 75% | 7.1 fold | < 10 pM | 5% | 2.3 pM |  |  | 
B5 | 48% |  |  | 69% | 120 pM |  |  | IC50, SNU5 growth (human MET on cells [2]): 780 pM; IC50, 6-day in vitro cytotoxicity, A549 (human MET on cells [3]): > 100000 pM; IC50, 6-day in vitro cytotoxicity, EBC-1 (human MET on cells [3]): > 100000 pM; IC50, 6-day in vitro cytotoxicity, Hs746t (human MET on cells [3]): > 100000 pM; Max % Kill, 6-day in vitro cytotoxicity, A549 (human MET on cells [3]): 7%; Max % Kill, 6-day in vitro cytotoxicity, EBC-1 (human MET on cells [3]): 30%; Max % Kill, 6-day in vitro cytotoxicity, Hs746t (human MET on cells [3]): 0%
B6 |  |  |  |  |  | ≥ 19.2 h | ≤ 1e-05 s⁻¹ | 
B7 |  |  |  |  |  | 0.59 h | 0.000326 s⁻¹ | 
B8 |  |  |  |  |  | 2.34 h | 8.21e-05 s⁻¹ | 
B9 |  |  |  |  |  | ≥ 19.2 h | ≤ 1e-05 s⁻¹ | 
